What all share (experiment): BLI; Octet RED96; client biotinylated and loaded on streptavidin sensors; Spy or Spy variant in solution at 0.25, 0.5, 1, 1.5 and 2 μM; 40 mM HEPES, 150 mM NaCl, pH 7.5; Kd calculated as koff/kon
Common to all, as to conditions: both partners purified

The target of one test is T1, Spy_(R43D) (UniProt P77754 24-161, R43D).
T1 construct: source: E. coli BL21 (DE3), purified (Ni-NTA, cation exchange, SEC); not shown: His6, N-terminal, cleaved; SUMO, N-terminal, cleaved
T1 sequence (looked up): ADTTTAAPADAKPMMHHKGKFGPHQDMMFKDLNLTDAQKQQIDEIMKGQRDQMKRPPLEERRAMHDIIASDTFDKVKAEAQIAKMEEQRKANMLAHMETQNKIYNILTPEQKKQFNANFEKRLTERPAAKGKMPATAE
A digest of the protocol: (§1)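 Association was recorded with an Octet RED96 as streptavidin sensors carrying client proteins, biotinylated with EZ-link NHS-biotin at a 1:1 molar ratio, sat in 40 mM HEPES, 150 mM NaCl, pH 7.5 with 0.25 to 2 μM of the analyte protein (0.25, 0.5, 1, 1.5 and 2 μM). Dissociation followed after transfer to analyte-free buffer. Both wavelength-shift phases were fitted in SigmaPlot 12.0 to obtain koff and the observed association rate, whose dependence on analyte concentration yielded kon, with Kd defined as koff divided by kon.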

Another test deals with T2, Spy_(K75D) (UniProt P77754 24-161, K75D).
T2 construct: also called control protein; source: E. coli BL21 (DE3), purified (Ni-NTA, cation exchange, SEC); not shown: His6, N-terminal, cleaved; SUMO, N-terminal, cleaved
T2 sequence (looked up): T1 sequence (looked up) with D43R, K75D
A digest of the protocol:
as §1

In the next test the target is T3, Spy_(D26K R61D R62D) (UniProt P77754 24-161, D26K | R61D | R62D).
T3 construct: source: E. coli BL21 (DE3), purified (Ni-NTA, cation exchange, SEC); not shown: His6, N-terminal, cleaved; SUMO, N-terminal, cleaved
T3 sequence (looked up): T1 sequence (looked up) with D26K, D43R, R61D, R62D
A digest of the protocol:
as §1

The next test has as its target T4, Spy_(R61D R62D) (UniProt P77754 24-161, R61D | R62D).
T4 construct: source: E. coli BL21 (DE3), purified (Ni-NTA, cation exchange, SEC); not shown: His6, N-terminal, cleaved; SUMO, N-terminal, cleaved
T4 sequence (looked up): T1 sequence (looked up) with D43R, R61D, R62D
A digest of the protocol:
as §1

Another test deals with T5, Spy_(K121D R122D) (UniProt P77754 24-161, K121D | R122D).
T5 construct: source: E. coli BL21 (DE3), purified (Ni-NTA, cation exchange, SEC); not shown: His6, N-terminal, cleaved; SUMO, N-terminal, cleaved
T5 sequence (looked up): T1 sequence (looked up) with D43R, K121D, R122D
A digest of the protocol: as §1

The target of a further test is T6, Spy D26K H96D (UniProt P77754 24-161, D26K | H96D).
T6 construct: source: E. coli BL21 (DE3), purified (Ni-NTA, cation exchange, SEC); not shown: His6, N-terminal, cleaved; SUMO, N-terminal, cleaved
T6 sequence (looked up): T1 sequence (looked up) with D26K, D43R, H96D
A digest of the protocol:
as §1

A further test has as its target T7, Spy D26K H65D (UniProt P77754 24-161, D26K | H65D).
T7 construct: source: E. coli BL21 (DE3), purified (Ni-NTA, cation exchange, SEC); not shown: His6, N-terminal, cleaved; SUMO, N-terminal, cleaved
T7 sequence (looked up): T1 sequence (looked up) with D26K, D43R, H65D
A digest of the protocol: as §1

The target of another test is T8, Spy_(K54D R55D) (UniProt P77754 24-161, K54D | R55D).
T8 construct: source: E. coli BL21 (DE3), purified (Ni-NTA, cation exchange, SEC); not shown: His6, N-terminal, cleaved; SUMO, N-terminal, cleaved
T8 sequence (looked up): T1 sequence (looked up) with D43R, K54D, R55D
A digest of the protocol:
as §1

Drawing on article PMC9122904, “Insights into the client protein release mechanism of the ATP-independent chaperone Spy” (Nature Communications, 2022), this text covers koff for one molecule.

Numbering of substitutions follows the chain as printed. Names and notes keep the numbering of the source.

B1: Im7 H40W L53A I54A (natural protein)
chain: MELKNSISDYTEAEFVQLLKEIEKENVAATDDVLDVLLEWFVKITEHPDGTDAAYYPSDNRDDSPEGIVKEIKEWRAANGKPGFKQG
modifications: biotin (EZ-link NHS-biotin, 1:1 molar ratio of biotin to protein)
notes: Im7 (colicin E7 immunity protein) with H40W L53A I54A; Spy was made with an N-terminal His6-SUMO tag that was cleaved; also called Im7AAW; partially folded client; source: purified by a similar procedure to Spy
As for B1, the koff with Spy_(R43D) was 0.533 s⁻¹; with Spy_(K75D) it was 0.183 s⁻¹; with Spy_(D26K R61D R62D) it was 0.475 s⁻¹; in the test with Spy_(R61D R62D), 0.0727 s⁻¹; in the test with Spy_(K121D R122D) it was 0.46 s⁻¹; with Spy D26K H96D, 0.172 s⁻¹. Further, the koff is 0.284 s⁻¹ in the test with Spy D26K H65D and 0.0743 s⁻¹ with Spy_(K54D R55D).

In general, koff refers to the rate constant with which the complex falls apart.
